The text below walks through data of article PMC10749193 (Frontiers in Immunology, 2023).

In the experiment the target is SARS-CoV-2 S2 subunit ectodomain (S2-ECD, 686–1213 aa) (SARS-CoV-2 Wuhan, UniProt P0DTC2). Kind of experiment: ELISA. Particulars: both partners purified. On the technique in general: In an ELISA, binding on a coated surface is turned into a signal by an enzyme label.

B1: anti-S2 monoclonal antibody 4A5 (antibody, V domains shown)
VH: QVKLEQSGPGILQPSQTLSLTCSFSGFSLSTSGMGVSWIRQSSGKGLEWLTHIYWDDDKRYNPSLKSRLTISKDTSRNQVFLKITSVDTADTATYYCARRRMITGLYYAMDYWGQGTSVTVSS
VL: DIVMTQSTLSLPVSFGDQVSISCRSSQSLANSYGITYLSWYLHKPGQSPQLLIYGISNRFSGVPDRFSGSGSGTDFTLKISTIKPEDLGMYYCLQGTHQPWTFGGGTKLEIK
For the molecule B1, the binding result is “binds”.
